Experimental findings from the supplement of paper PMC5998384 are described below.

Data set [1] deals with HeLa Kyoto. The data set can be described thus: solubility in G1/S (NP-40 vs SDS abundance) (log2 ratio); higher = more soluble. The conditions noted are these: cell cycle stage: G1/S.
For data set [2], the system named is HeLa Kyoto. The data set can be described thus: melting temperature (median over replicates), in situ; higher = more thermally stable.
The test system of data set [3] is HeLa Kyoto. The data set can be described thus: thermal stability score vs G1/S (z-score of summed log2 fold changes over temperatures); higher = more thermally stable than in G1/S.
For data set [4], the system named is HeLa Kyoto. The data set can be described thus: solubility change mitosis vs G1/S (difference of NP-40 vs SDS log2 ratios) (log2 ratio difference); higher = more soluble in mitosis.
[5] abbreviates: cell cycle stage: early G1 (4.5 h after nocodazole release).
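Throughout, for melting temperature (median over replicates), in situ: HeLa Kyoto cells synchronized by double thymidine or nocodazole block, proteins quantified by TMT10plex mass spectrometry, three independent biological replicates.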
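Throughout, for solubility change mitosis vs G1/S (difference of NP-40 vs SDS log2 ratios): synchronized HeLa Kyoto cells (double thymidine block for G1/S, nocodazole release for mitosis), protein amounts in NP-40 versus SDS lysates quantified by mass spectrometry, three biological replicates.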
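Throughout, for solubility in G1/S (NP-40 vs SDS abundance): HeLa Kyoto cells arrested at G1/S by double thymidine block, proteins quantified by TMT10plex mass spectrometry in mild NP-40 versus SDS extracts, three biological replicates.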
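Throughout, for thermal stability score vs G1/S (z-score of summed log2 fold changes over temperatures): synchronized HeLa Kyoto cells, proteins quantified by TMT10plex mass spectrometry, three biological replicates, mitosis taken 0.5 h after nocodazole release, G1/S directly after double thymidine block.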

Sequence of UBE2V2 (chain, as listed by the source): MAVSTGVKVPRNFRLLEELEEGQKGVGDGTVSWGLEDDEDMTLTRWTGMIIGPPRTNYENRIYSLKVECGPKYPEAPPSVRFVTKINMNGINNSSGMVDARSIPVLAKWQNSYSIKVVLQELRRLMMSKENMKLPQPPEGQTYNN

As to “MRAVRRGLREGGAMAAARDPPEVSLREATQRKLRRFSELRGKLVARGEFWDIVAITAADEKQELAYNQQLSEKLKRKELPLGVQYHVFVDPAGAKIGNGGSTLCALQCLEKLYGDKWNSFTILLIHSGGYSQRLPNASALGKIFTALPLGNPIYQMLELKLAMYIDFPLNMNPGILVTCADDIELYSIGEFEFIRFDKPGFTALAHPSSLTIGTTHGVFVLDPFDDLKHRDLEYRSCHRFLHKPSIEKMYQFNAVCRPGNFCQQDFAGGDIADLKLDSDYVYTDSLFYMDHKSAKMLLAFYEKIGTLSCEIDAYGDFLQALGPGATVEYTRNTSNVIKEESELVEMRQRIFHLLKGTSLNVVVLNNSKFYHIGTTEEYLFYFTSDNSLKSELGLQSITFSIFPDIPECSGKTSCIIQSILDSRCSVAPGSVVEYSRLGPDVSVGENCIISGSYILTKAALPAHSFVCSLSLKMNRCLKYATMAFGVQDNLKKSVKTLSDIKLLQFFGVCFLSCLDVWNLKVTEELFSGNKTCLSLWTARIFPVCSSLSDSVITSLKMLNAVKNKSAFSLNSYKLLSIEEMLIYKDVEDMITYREQIFLEISLKSSLM [FPGT]”, in data set [1], the “solubility in G1/S (log2)” value was found to be 0.115. Also, the values for the melting temperature in data set [2] (cell cycle stage: G1/S) and in data set [2] (cell cycle stage: mitosis) were 54.4 °C and 55.1 °C, respectively. For the same substance, the thermal stability score in data set [3] (setting [5]) amounted to 1.19; in data set [3] (cell cycle stage: mitosis) it was 2.29. For the same substance, in data set [4], the “solubility change mitosis (log2)” value is -0.353.
Regarding “MATTGTPTADRGDAAATDDPAARFQVQKHSWDGLRSIIHGSRKYSGLIVNKAPHDFQFVQKTDESGPHSHRLYYLGMPYGSRENSLLYSEIPKKVRKEALLLLSWKQMLDHFQATPHHGVYSREEELLRERKRLGVFGITSYDFHSESGLFLFQASNSLFHCRDGGKNGFMVSPMKPLEIKTQCSGPRMDPKICPADPAFFSFINNSDLWVANIETGEERRLTFCHQGLSNVLDDPKSAGVATFVIQEEFDRFTGYWWCPTASWEGSEGLKTLRILYEEVDESEVEVIHVPSPALEERKTDSYRYPRTGSKNPKIALKLAEFQTDSQGKIVSTQEKELVQPFSSLFPKVEYIARAGWTRDGKYAWAMFLDRPQQWLQLVLLPPALFIPSTENEEQRLASARAVPRNVQPYVVYEEVTNVWINVHDIFYPFPQSEGEDELCFLRANECKTGFCHLYKVTAVLKSQGYDWSEPFSPGEDEFKCPIKEEIALTSGEWEVLARHGSKIWVNEETKLVYFQGTKDTPLEHHLYVVSYEAAGEIVRLTTPGFSHSCSMSQNFDMFVSHYSSVSTPPCVHVYKLSGPDDDPLHKQPRFWASMMEAASCPPDYVPPEIFHFHTRSDVRLYGMIYKPHALQPGKKHPTVLFVYGGPQVQLVNNSFKGIKYLRLNTLASLGYAVVVIDGRGSCQRGLRFEGALKNQMGQVEIEDQVEGLQFVAEKYGFIDLSRVAIHGWSYGGFLSLMGLIHKPQVFKVAIAGAPVTVWMAYDTGYTERYMDVPENNQHGYEAGSVALHVEKLPNEPNRLLILHGFLDENVHFFHTNFLVSQLIRAGKPYQLQIYPNERHSIRCPESGEHYEVTLLHFLQEYL [DPP9]”, in data set [1], the “solubility in G1/S (log2)” value was -0.0578. The melting temperature was 51.3 °C in data set [2] (cell cycle stage: G1/S) and 51.1 °C in data set [2] (cell cycle stage: mitosis). Further, the thermal stability score in data set [3] (setting [5]) was -0.344; in data set [3] (cell cycle stage: mitosis), -0.63. In data set [4], the “solubility change mitosis (log2)” value was -0.171.
Turning to “MSGEPGQTSVAPPPEEVEPGSGVRIVVEYCEPCGFEATYLELASAVKEQYPGIEIESRLGGTGAFEIEINGQLVFSKLENGGFPYEKDLIEAIRRASNGETLEKITNSRPPCVIL [MIEN1]”, in data set [1], the “solubility in G1/S (log2)” value worked out at 0.353. Besides, the melting temperature in data set [2] (cell cycle stage: G1/S) worked out at 50.8 °C; in data set [2] (cell cycle stage: mitosis) it was 51.1 °C. Moreover, the thermal stability score was -1.21 in data set [3] (setting [5]) and 0.00566 in data set [3] (cell cycle stage: mitosis). The “solubility change mitosis (log2)” value in data set [4] was -0.0195.
Take “MKSARAKTPRKPTVKKGSQTNLKDPVGVYCRVRPLGFPDQECCIEVINNTTVQLHTPEGYRLNRNGDYKETQYSFKQVFGTHTTQKELFDVVANPLVNDLIHGKNGLLFTYGVTGSGKTHTMTGSPGEGGLLPRCLDMIFNSIGSFQAKRYVFKSNDRNSMDIQCEVDALLERQKREAMPNPKTSSSKRQVDPEFADMITVQEFCKAEEVDEDSVYGVFVSYIEIYNNYIYDLLEEVPFDPIKPKPPQSKLLREDKNHNMYVAGCTEVEVKSTEEAFEVFWRGQKKRRIANTHLNRESSRSHSVFNIKLVQAPLDADGDNVLQEKEQITISQLSLVDLAGSERTNRTRAEGNRLREAGNINQSLMTLRTCMDVLRENQMYGTNKMVPYRDSKLTHLFKNYFDGEGKVRMIVCVNPKAEDYEENLQVMRFAEVTQEVEVARPVDKAICGLTPGRRYRNQPRGPVGNEPLVTDVVLQSFPPLPSCEILDINDEQTLPRLIEALEKRHNLRQMMIDEFNKQSNAFKALLQEFDNAVLSKENHMQGKLNEKEKMISGQKLEIERLEKKNKTLEYKIEILEKTTTIYEEDKRNLQQELETQNQKLQRQFSDKRRLEARLQGMVTETTMKWEKECERRVAAKQLEMQNKLWVKDEKLKQLKAIVTEPKTEKPERPSRERDREKVTQRSVSPSPVPLSSNYIAQISNGQQLMSQPQLHRRSNSCSSISVASCISEWEQKIPTYNTPLKVTSIARRRQQEPGQSKTCIVSDRRRGMYWTEGREVVPTFRNEIEIEEDHCGRLLFQPDQNAPPIRLRHRRSRSAGDRWVDHKPASNMQTETVMQPHVPHAITVSVANEKALAKCEKYMLTHQELASDGEIETKLIKGDIYKTRGGGQSVQFTDIETLKQESPNGSRKRRSSTVAPAQPDGAESEWTDVETRCSVAVEMRAGSQLGPGYQHHAQPKRKKP [KIF23]”: in data set [1], the “solubility in G1/S (log2)” value is -0.255. Moreover, the melting temperature in data set [2] (cell cycle stage: G1/S) turned out to be 49.3 °C; in data set [2] (cell cycle stage: mitosis) it was 49.6 °C. The thermal stability score in data set [3] (setting [5]) is 0.0501; in data set [3] (cell cycle stage: mitosis), 0.448. Besides, the “solubility change mitosis (log2)” value in data set [4] is -0.112.
Turning to “MGSSKKHRGEKEAAGTTAAAGTGGATEQPPRHREHKKHKHRSGGSGGSGGERRKRSRERGGERGSGRRGAEAEARSSTHGRERSQAEPSERRVKREKRDDGYEAAASSKTSSGDASSLSIEETNKLRAKLGLKPLEVNAIKKEAGTKEEPVTADVINPMALRQREELREKLAAAKEKRLLNQKLGKIKTLGEDDPWLDDTAAWIERSRQLQKEKDLAEKRAKLLEEMDQEFGVSTLVEEEFGQRRQDLYSARDLQGLTVEHAIDSFREGETMILTLKDKGVLQEEEDVLVNVNLVDKERAEKNVELRKKKPDYLPYAEDESVDDLAQQKPRSILSKYDEELEGERPHSFRLEQGGTADGLRERELEEIRAKLRLQAQSLSTVGPRLASEYLTPEEMVTFKKTKRRVKKIRKKEKEVVVRADDLLPLGDQTQDGDFGSRLRGRGRRRVSEVEEEKEPVPQPLPSDDTRVENMDISDEEEGGAPPPGSPQVLEEDEAELELQKQLEKGRRLRQLQQLQQLRDSGEKVVEIVKKLESRQRGWEEDEDPERKGAIVFNATSEFCRTLGEIPTYGLAGNREEQEELMDFERDEERSANGGSESDGEENIGWSTVNLDEEKQQQDFSASSTTILDEEPIVNRGLAAALLLCQNKGLLETTVQKVARVKAPNKSLPSAVYCIEDKMAIDDKYSRREEYRGFTQDFKEKDGYKPDVKIEYVDETGRKLTPKEAFRQLSHRFHGKGSGKMKTERRMKKLDEEALLKKMSSSDTPLGTVALLQEKQKAQKTPYIVLSGSGKSMNANTITK [SART1]”, the “solubility in G1/S (log2)” value in data set [1] is -0.654. Further, the melting temperature came out at 50.8 °C in data set [2] (cell cycle stage: G1/S) and 51.6 °C in data set [2] (cell cycle stage: mitosis). Also, the values for the thermal stability score in data set [3] (setting [5]) and in data set [3] (cell cycle stage: mitosis) were 0.893 and 3.51, respectively. In data set [4], the “solubility change mitosis (log2)” value stood at 0.448.
Take GOLGA3: in data set [1], the “solubility in G1/S (log2)” value amounted to 0.313. The melting temperature in data set [2] (cell cycle stage: G1/S) stood at 51.8 °C; in data set [2] (cell cycle stage: mitosis) it was 50.4 °C. Further, the thermal stability score is 0.197 in data set [3] (setting [5]) and -1.4 in data set [3] (cell cycle stage: mitosis). Moreover, the “solubility change mitosis (log2)” value in data set [4] is -0.048.
Take UBE2V2: in data set [1], the “solubility in G1/S (log2)” value came out at 0.464. Also, the melting temperature was 52.5 °C in data set [2] (cell cycle stage: G1/S) and 52.9 °C in data set [2] (cell cycle stage: mitosis). Also, the thermal stability score in data set [3] (setting [5]) was 0.348; in data set [3] (cell cycle stage: mitosis), -0.815. The “solubility change mitosis (log2)” value in data set [4] was 0.122.
